According to PMC5387054, “Zinc-Dependent Transcriptional Regulation in Paracoccus denitrificans”:

T1: Zur (Paracoccus denitrificans) (UniProt A1B9K9)
T1 sequence: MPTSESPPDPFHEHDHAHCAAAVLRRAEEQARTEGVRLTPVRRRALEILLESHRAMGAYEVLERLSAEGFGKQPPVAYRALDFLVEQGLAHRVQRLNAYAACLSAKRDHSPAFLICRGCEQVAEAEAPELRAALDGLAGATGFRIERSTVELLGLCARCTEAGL

T2: Zur (Paracoccus denitrificans, UniProt A1B9K9 1-164)
T2 sequence: T1 sequence

B1: specific competitor (zur/znuA), 59 bp (dsDNA)
DNA 1: GGGCATGATGTTATATCGTTACATTTTTGCTTGACGGGTTACGATATAACATAAATAAC
DNA 2: GTTATTTATGTTATATCGTAACCCGTCAAGCAAAAATGTAACGATATAACATCATGCCC

Key:
[1] = molecular target: T1, Zur (Paracoccus denitrificans); experiment: EMSA; conditions: EMSA: 10 mM Tris pH 8.0, 10 mM NaCl, 100 mM K-glutamate, 50 mM KCl, 1 mM DTT, 1.07 ug/ml BSA, 0.1 uM DNA, 0-20 uM Zur, 25 uM ZnCl2, 100 uM EDTA; 30 min room …
[2] = molecular target: Paracoccus denitrificans zinc uptake regulator (Zur) (Paracoccus denitrificans PD1222); experiment: SEC; Factor Xa cleavage reaction mixture applied to a Hi-Prep Sephacryl S-100 HR column, 20 mM Tris pH 8.0, 150 mM NaCl, calibrated with proteins of 6.5 to 75 kDa
[3] = molecular target: T2, Zur; experiment: competition; probe zur/znuA 0.1 uM; 10 uM Zur, 25 uM Zn2+, 100 uM EDTA; 5 uM competitor; shift disrupted, not fully displaced; EMSA: 10 mM Tris pH 8.0, 10 mM NaCl, 100 mM K-glutamate, 50 mM KCl, 1 mM DTT, 1.07 ug/ml BSA, 0.1 uM DNA, 0-20 uM Zur, 25 uM ZnCl2, 100 uM EDTA; 30 min room temperature; 8% native PAGE at 4 C; conditions: protein: recombinant; tags: MBP (pMAL-c5X) removed by Factor Xa; chain copies: 2; blunt

Row | Molecule | binding [1] | further results
1 | AAGAGAGGGTTGAGCCTGCCCGGTAAAGGGCCGGGCGGGATGATCCGCCAGGCGCATGGGCGAAGCCCTCTTGCATCCCCGGGTGGGTAATATAATAACATAACAAAATCTCCGAGGATAACGCTCATGCTCTGCAAACTGCTCGCTT (double strand) [pden1341 promoter] | binds | 
2 | AATCACAAAACCGGCGCCTCGGCATTTCCCCGCTGATGCTTTGCCCTCTCGCCGCGGGTCCTGCGGCTTTTCGGACGACCGGCGCGGCATGGCTTGCCGTTCCGGTTTAGTAATGTAATAACATCACCAAAATATCGAGTCCGCTATCCAGTGATGCCCAGAACC (double strand) [aztA promoter] | binds | 
3 | CGGCAAGGACAAGGGAAGAAGGTCGGATCATGGCGAGACTCACTTGCGGAAACGCCAAGGTTATTTATGTTATATCGTAACCCGTCAAGCAAAAATGTAACGATATAACATCATGCCCACTTCGGAATCCCCGCCTGACCCGTTTCACG (double strand) [zur/znuA promoter (149 bp)] | binds | 
4 | GCCGCCCGCTGACCAGATTTCCGCCGGGACCAGCCTGCGCCCGTCCCGGCGCCCTCCCCCGAACCCCATCAAGGAGACTTTCCATGCTCAGACATCTCGCGGGCGCCAGCGCCCTTGCCCTGACCTT (double strand) [aztD promoter (negative control, 128 bp)] | binds more weakly | 
5 | Paracoccus denitrificans zinc uptake regulator (Zur) (natural protein) |  | stoichiometry N [2]: 2
6 | B1 |  | binding result [3]: binds
